According to US20240287172A1 (SCIRHOM, published 2024):

T1: hiR2-FL-D592A-T7 (human, UniProt Q6PJF5 1-856)
T1 sequence: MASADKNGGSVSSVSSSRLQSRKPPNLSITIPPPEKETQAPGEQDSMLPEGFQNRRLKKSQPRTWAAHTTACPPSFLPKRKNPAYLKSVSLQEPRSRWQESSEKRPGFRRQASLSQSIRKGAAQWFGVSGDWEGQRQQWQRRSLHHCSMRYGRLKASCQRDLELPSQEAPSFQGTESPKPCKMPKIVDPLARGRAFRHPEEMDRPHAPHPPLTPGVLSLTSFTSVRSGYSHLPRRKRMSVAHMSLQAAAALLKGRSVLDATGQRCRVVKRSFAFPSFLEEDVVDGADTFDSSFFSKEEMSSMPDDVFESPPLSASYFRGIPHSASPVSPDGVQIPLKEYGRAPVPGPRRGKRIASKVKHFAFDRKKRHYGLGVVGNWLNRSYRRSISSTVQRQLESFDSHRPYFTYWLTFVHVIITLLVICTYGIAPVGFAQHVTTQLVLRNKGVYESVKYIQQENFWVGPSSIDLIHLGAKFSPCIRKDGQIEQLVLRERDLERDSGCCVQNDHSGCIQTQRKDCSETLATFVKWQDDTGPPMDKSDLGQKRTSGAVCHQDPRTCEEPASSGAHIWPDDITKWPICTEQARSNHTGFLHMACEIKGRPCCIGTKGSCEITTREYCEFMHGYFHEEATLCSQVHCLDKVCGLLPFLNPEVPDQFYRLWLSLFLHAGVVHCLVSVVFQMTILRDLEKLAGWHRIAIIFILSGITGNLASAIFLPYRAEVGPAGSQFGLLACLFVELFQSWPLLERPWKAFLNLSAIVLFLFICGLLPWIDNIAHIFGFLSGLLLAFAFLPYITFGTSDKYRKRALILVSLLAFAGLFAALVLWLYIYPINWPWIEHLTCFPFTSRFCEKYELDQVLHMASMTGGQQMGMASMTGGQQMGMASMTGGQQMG

T2: hiR2-FL-P532A-T7 (human, UniProt Q6PJF5 1-856)
T2 sequence: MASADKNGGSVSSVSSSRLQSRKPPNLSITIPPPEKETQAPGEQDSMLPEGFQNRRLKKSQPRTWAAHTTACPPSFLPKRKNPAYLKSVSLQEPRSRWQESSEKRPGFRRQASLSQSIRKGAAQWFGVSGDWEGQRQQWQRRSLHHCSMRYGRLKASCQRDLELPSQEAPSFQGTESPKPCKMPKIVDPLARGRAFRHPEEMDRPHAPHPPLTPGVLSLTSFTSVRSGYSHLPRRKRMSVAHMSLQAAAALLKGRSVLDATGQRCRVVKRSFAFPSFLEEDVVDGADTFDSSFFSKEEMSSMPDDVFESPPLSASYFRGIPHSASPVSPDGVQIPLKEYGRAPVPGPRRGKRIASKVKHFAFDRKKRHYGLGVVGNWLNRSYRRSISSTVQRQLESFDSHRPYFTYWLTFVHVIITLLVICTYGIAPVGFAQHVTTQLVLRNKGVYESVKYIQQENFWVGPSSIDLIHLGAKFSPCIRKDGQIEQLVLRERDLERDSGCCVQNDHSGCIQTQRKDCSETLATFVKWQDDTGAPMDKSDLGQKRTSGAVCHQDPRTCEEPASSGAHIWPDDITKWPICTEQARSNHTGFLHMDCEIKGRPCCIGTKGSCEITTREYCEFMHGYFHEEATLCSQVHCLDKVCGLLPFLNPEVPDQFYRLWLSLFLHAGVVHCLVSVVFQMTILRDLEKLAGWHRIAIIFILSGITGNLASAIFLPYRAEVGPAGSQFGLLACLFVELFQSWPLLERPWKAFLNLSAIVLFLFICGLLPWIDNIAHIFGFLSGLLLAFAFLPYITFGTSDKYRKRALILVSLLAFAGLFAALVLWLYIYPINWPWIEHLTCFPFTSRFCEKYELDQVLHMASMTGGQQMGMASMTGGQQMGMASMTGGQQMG

B1: antibody 48 (antibody, V domains shown)
VH: QVQLQQSGTELVRPGTSVKVSCKASGYAFTNYLIEWVKQRPGQGLEWIGVINPGSGFTKYNEKFKGKATLTADKSSSTVYMHLSSLTSEDSAVYFCARGLYRAMDYWGQGTSVTVSS
VL: DIQMTQSPASQSASLGESVTITCLASQTIATWLAWYQQKPGKSPQLLIYGATTLADGVPSRFSGGGSGTKFSFKISSLQAEDFVSYYCQQLYSTPYTFGGGTKLEIK
notes: mouse IgG, kappa light chain; also called clone #48; purified antibody 48
B2: antibody 50 (antibody, V domains shown)
VH: QVQLQQSGAELVRPGASVKVSCKASGYAFSNYLIEWVKQRPGQGLEWIGVINPGSGFTKYNEKFKGKATLTADKSSSTAYMQLSSLTSEDSAVYFCARGLYRAMDYWGQGTSVTVSS
VL: DIQMTQSPASQSASLGESVTITCLASQTIGTWLAWYQQKPGKSPQLLIYAAASLADGVPSRFSGGGSGTKFSFKISSLQAEDFVNYYCQQIYSTPYTFGGGTKLEIK
notes: mouse IgG, kappa light chain; also called clone #50; purified antibody 50
B3: antibody 5 (antibody, V domains shown)
VH: QVTLKESGPGILQPSQTLSLTCSFSGFSLSTFGMGVGWIRQPSGKGLEWLAHIWWDDEKYYNSALKSRLTISKATSKNQAFLKIANVDTADTATYYCARISNYGSNYWYFNVWGTGTTVTVSS
VL: QVVLTQSPALMSASPGEKVTMTCSAGSSVSCMYWYQQKPGSSPRVLIYDTSNLASGVPARFTGSGSGTSYSLTISRMEAEDAASYYCQQWNSYPLTFGAGTKLELK
notes: mouse IgG, kappa light chain; also called clone #5; purified antibody 5
B4: antibody 44 (antibody, V domains shown)
VH: QVTLKESGPGILQPSQTLSLTCSFSGFSLSTFGMGVGWIRQPSEKGLEWLAHIWWDDDKYYNPALKSRLTISKDTSKNQIFLKITNVDTAETATYYCSRIGNYGSNYWYFDVWGTGTTVTVSS
VL: QIVLTQSPAVMSASPGEKVTMTCTASSSVYYMYWYQQTPGSSPRLLIYDTSNLASGVPVRFSGSGSGTSYSLTISRMEAEDAATYYCQQWNTYPLTFGAGTKLELK
notes: mouse IgG, kappa light chain; also called clone #44; purified antibody 44

How the values were obtained:
hiR2-FL-D592A-T7 = biological target: T1, hiR2-FL-D592A-T7; assay: FACS on MEF-DKO cells expressing the variant, 3 µg/ml antibody
Method in brief: (§1)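 Flow cytometry read-out of binding to variant-expressing cells after two-step staining on ice: 1 h with antibody at 3 μg/ml, then 1 h with PE-labelled goat anti-mouse IgG F(ab′)2 diluted 1:100. Controls received FACS buffer without primary antibody.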

hiR2-FL-P532A-T7 = biological target: T2, hiR2-FL-P532A-T7; assay: as above
Method in brief: as §1

Row | Binder | loss of binding vs wild type (hiR2-FL-D592A-T7) [%] | loss of binding vs wild type (hiR2-FL-P532A-T7) [%]
1 | B1 | ≥ 60 | 
2 | B2 | ≥ 60 | 
3 | B3 |  | ≥ 30
4 | B4 |  | ≥ 30
